The text below walks through data of patent US20180142032A1 (Sanofi, published 2018).

In general, EC50 refers to the concentration at which the effect is half-maximal.

Experiment [1] has as its target T1, cynomolgus monkey LAMP1 at the cell surface (cynomolgus monkey, UniProt P11279 29-417 (human entry)).
T1 construct: also called cynoLAMP1; cynomolgus LAMP1
T1 chain: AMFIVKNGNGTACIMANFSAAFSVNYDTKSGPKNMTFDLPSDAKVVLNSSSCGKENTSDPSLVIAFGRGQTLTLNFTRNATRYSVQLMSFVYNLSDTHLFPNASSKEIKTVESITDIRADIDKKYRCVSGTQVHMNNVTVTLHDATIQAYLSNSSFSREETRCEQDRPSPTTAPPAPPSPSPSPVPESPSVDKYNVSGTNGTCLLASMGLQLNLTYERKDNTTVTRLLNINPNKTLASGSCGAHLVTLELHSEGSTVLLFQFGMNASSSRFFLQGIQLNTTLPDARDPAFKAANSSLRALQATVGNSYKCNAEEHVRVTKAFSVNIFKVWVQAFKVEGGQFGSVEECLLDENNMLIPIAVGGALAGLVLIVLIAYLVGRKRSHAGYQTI
The experiment can be described thus: flow cytometry, HEK293 stable clone. The source says:
HCT116 stable clone was obtained as described above. HEK293 cells were infected by a lentiviral vector allowing stable integration of the human or the cynomolgus LAMP1 CDS in genomic DNA of cells. Individual clones with different densities of cynomolgus LAMP1 cell surface localization were derived from a pool of HEK293 infected cells. Protocol as described in example above. EC₅₀ values were estimated using BIOST@T-SPEED software.
Background: In flow cytometry, cells or beads pass a laser one at a time.

For experiment [2], the target named is T2, LAMP1_L123_mLAMP1_L4::histag (human/mouse hybrid, UniProt P11279 29-375).
T2 construct: human LAMP1 (29-309) and mouse LAMP1 (299-369), His tag; also called Loop1-3: hLAMP1 Loop4: mLAMP1
T2 chain: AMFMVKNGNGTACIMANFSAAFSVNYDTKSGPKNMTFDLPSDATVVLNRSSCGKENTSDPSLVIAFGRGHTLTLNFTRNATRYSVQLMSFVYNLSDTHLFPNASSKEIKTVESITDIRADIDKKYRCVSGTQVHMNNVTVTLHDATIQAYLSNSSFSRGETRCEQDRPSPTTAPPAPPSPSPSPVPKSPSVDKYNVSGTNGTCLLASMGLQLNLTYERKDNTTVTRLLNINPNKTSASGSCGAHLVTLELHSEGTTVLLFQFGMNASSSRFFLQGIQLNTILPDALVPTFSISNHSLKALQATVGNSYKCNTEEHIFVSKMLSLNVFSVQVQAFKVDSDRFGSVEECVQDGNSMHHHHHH
The experiment in a line: ELISA. On the technique in general: An ELISA detects its analyte on a solid surface through an enzyme-linked reagent.

Experiment [3] has as its target T3, mLAMP1_L12_LAMP1_L34::histag (mouse/human hybrid).
T3 construct: mouse LAMP1 (25-189) and human LAMP1 (196-382), His tag; also called Loop1-2: mLAMP1 Loop3-4: hLAMP1
T3 chain: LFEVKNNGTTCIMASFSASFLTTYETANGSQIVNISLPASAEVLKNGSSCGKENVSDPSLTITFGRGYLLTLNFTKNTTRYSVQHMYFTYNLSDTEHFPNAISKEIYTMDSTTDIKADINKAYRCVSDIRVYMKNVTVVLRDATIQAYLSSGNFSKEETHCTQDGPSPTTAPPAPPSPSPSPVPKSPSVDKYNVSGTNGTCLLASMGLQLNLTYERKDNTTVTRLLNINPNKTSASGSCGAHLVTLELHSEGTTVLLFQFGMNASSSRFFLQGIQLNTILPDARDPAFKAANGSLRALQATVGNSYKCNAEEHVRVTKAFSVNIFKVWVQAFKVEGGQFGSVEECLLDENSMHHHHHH
The experiment can be described thus: ELISA.

The target in experiment [4] is T4, mLAMP1_L1_LAMP1_L234::histag (mouse/human hybrid).
T4 construct: also called Loop1: mLAMP1 Loop2-4: hLAMP1
T4 chain: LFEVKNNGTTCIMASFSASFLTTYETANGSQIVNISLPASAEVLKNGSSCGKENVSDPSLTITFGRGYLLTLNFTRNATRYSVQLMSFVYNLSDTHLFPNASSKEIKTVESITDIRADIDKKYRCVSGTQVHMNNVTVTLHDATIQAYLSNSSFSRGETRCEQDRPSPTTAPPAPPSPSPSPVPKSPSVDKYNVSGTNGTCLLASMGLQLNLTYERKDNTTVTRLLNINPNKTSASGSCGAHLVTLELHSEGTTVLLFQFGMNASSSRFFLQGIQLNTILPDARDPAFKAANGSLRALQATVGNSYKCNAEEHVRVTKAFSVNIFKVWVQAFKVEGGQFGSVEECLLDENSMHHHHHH
The experiment in a line: ELISA.

For experiment [5], the target named is T5, LAMP1::histag (human, UniProt P11279 29-382).
T5 construct: extracellular domain without signal peptide, C-terminal 6 His tag, made in HEK293 cells; also called recombinant human LAMP1; human LAMP1 (29-382)
T5 sequence: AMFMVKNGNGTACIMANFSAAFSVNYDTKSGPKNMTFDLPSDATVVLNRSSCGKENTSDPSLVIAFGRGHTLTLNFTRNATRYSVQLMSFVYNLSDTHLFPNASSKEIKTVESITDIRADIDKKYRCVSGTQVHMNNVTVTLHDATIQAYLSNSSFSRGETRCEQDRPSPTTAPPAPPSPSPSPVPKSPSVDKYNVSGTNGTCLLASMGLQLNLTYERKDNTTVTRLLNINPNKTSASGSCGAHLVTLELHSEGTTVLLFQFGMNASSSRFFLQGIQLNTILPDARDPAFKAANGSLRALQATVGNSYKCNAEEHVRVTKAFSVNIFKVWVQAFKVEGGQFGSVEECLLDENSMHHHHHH
The experiment in a line: ELISA.

Experiment [6] has as its target T6, LAMP1_L12_mLAMP1_L34::histag (human/mouse hybrid).
T6 construct: human LAMP1 (29-195) and mouse LAMP1 (190-369), His tag; also called Loop1-2: hLAMP1 Loop3-4: mLAMP1
T6 chain: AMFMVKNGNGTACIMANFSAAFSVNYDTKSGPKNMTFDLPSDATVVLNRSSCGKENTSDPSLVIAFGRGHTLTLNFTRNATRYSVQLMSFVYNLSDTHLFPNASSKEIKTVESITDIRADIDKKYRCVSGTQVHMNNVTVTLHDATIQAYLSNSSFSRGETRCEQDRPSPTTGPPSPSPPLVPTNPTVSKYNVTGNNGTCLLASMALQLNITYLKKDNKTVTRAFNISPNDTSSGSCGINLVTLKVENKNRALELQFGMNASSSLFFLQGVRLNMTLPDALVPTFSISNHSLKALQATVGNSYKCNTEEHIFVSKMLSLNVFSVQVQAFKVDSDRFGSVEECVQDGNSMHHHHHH
The experiment can be described thus: ELISA.

Experiment [7] deals with T5, LAMP1::histag. The experiment in a line: ELISA on recombinant human LAMP1.

B1: MAb3 (antibody, V domains shown)
VH: QIQLVQSGPELKKPGETVKISCKASGYIFTNYGMNWVKQAPGKGLKWMGWINTYTGESRYADDFKGRFALSLETSASTAYLQINNLENEDMATYFCAREDYYGNSPWFFDVWGAGTTVTVSS
VL: DIQMTQTTSSLSASLGDRVTISCNASQGINKYLNWYQQKPDGTVKLLIYYTSTLHSGVPSRFSGSGSGTDYSLTINNLEPEDIATYYCQQYTKLPFTFGSGTKLEIK
notes: murine monoclonal IgG, kappa, from hybridoma; also called murine MAb3
In experiment [1], B1 showed an EC50 of 4 nM.

B2: MAb2 (antibody, mouse IgG1, kappa)
heavy: QVQLQQSAAELARPGASVKMSCKASGYTFTSYTMHWVKQRPGQGLEWIGYFNPSSGYPEYNQKFKDKTTLTADKSSNTAFIQLNSLTSEDSAVYYCSRGYYYGSRGYALDFWGQGASVTVSSAKTTPPSVYPLAPGSAAQTNSMVTLGCLVKGYFPEPVTVTWNSGSLSSGVHTFPAVLQSDLYTLSSSVTVPSSTWPSETVTCNVAHPASSTKVDKKIVPRDCGCKPCICTVPEVSSVFIFPPKPKDVLTITLTPKVTCVVVDISKDDPEVQFSWFVDDVEVHTAQTQPREEQFNSTFRSVSELPIMHQDWLNGKEFKCRVNSAAFPAPIEKTISKTKGRPKAPQVYTIPPPKEQMAKDKVSLTCMITDFFPEDITVEWQWNGQPAENYKNTQPIMDTDGSYFVYSKLNVQKSNWEAGNTFTCSVLHEGLHNHHTEKSLSHSPGK
light: NIVLTQSPVSLAVSLGQRATISCRASESVDINGNTFMHWYQQKPGQSPKLVIYAASNIESGVPARFSGSGSSTDFTFTIDPVEADDVATYYCQQNIEDPWTFGGGTKVEIKRADAAPTVSIFPPSSEQLTSGGASVVCFLNNFYPKDINVKWKIDGSERQNGVLNSWTDQDSKDSTYSMSSTLTLTKDEYERHNSYTCEATHKTSTSPIVKSFNRNEC
notes: murine monoclonal IgG, kappa, from hybridoma; also called murine MAb2
Regarding B2, the EC50 in experiment [2], in experiment [5], in experiment [6] and in experiment [7] was 0.25 nM throughout. Also, the binding result in experiment [3] and in experiment [4] was “no binding” each time.

B3: MAb1 (antibody, mouse IgG2a, kappa)
heavy: QVQLQQSGAELVKPGASVKMSCKASGYIFTNYNIHWVKKSPGQGLEWIGAIYPGNGDAPYSQKFKDKATLTADKSSSTTYMQLSRLTSEDSAVYYCVRANWDVAFAYWGQGTLVSVSAAKTTAPSVYPLAPVCGDTTGSSVTLGCLVKGYFPEPVTLTWNSGSLSSGVHTFPAVLQSDLYTLSSSVTVTSSTWPSQSITCNVAHPASSTKVDKKIEPRGPTIKPCPPCKCPAPNLLGGPSVFIFPPKIKDVLMISLSPIVTCVVVDVSEDDPDVQISWFVNNVEVHTAQTQTHREDYNSTLRVVSALPIQHQDWMSGKEFKCKVNNKDLPAPIERTISKPKGSVRAPQVYVLPPPEEEMTKKQVTLTCMVTDFMPEDIYVEWTNNGKTELNYKNTEPVLDSDGSYFMYSKLRVEKKNWVERNSYSCSVVHEGLHNHHTTKSFSRTPGK
light: DIQMTQSPPSLSASLGGKVTITCKASQDIDRYMAWYQDKPGKGPRLLIHDTSTLQPGIPSRFSGSGSGRDYSFSISNLEPEDIATYYCLQYDNLWTFGGGTKLEIKRADAAPTVSIFPPSSEQLTSGGASVVCFLNNFYPKDINVKWKIDGSERQNGVLNSWTDQDSKDSTYSMSSTLTLTKDEYERHNSYTCEATHKTSTSPIVKSFNRNEC
notes: murine monoclonal IgG, kappa, from hybridoma; also called murine MAb1
Regarding B3, the EC50 in experiment [2] is 0.16 nM; in experiment [4], 0.15 nM; in experiment [5], 0.18 nM; in experiment [6], 0.18 nM; in experiment [7], 0.18 nM. Further, the binding result in experiment [3] is listed as “no binding”.
